# Ends that are not written are not given here. * marks the point of attachment. DOPE = dioleoylphosphatidylethanolamine, CCCCCCCC/C=C\CCCCCCCC(=O)OC[C@H](COP(=O)(O)OCCN*)OC(=O)CCCCCCC/C=C\CCCCCCCC; MeO‑PEG succinate = methoxy poly(ethylene glycol) succinate
# Legend:
# MMP-2 [1] = biological target: T1, MMP-2 (Homo sapiens, UniProt P08253); test: Decomposition of the peptide by MMP-2, reverse phase HPLC; assay type: biochemical; conditions: 0.5 mM peptide, MMP2 53 nM, 230 nM and 450 nM, 37° C., 2 hours
# T1 construct: purchased Sigma
# T1 sequence (P08253 110-660): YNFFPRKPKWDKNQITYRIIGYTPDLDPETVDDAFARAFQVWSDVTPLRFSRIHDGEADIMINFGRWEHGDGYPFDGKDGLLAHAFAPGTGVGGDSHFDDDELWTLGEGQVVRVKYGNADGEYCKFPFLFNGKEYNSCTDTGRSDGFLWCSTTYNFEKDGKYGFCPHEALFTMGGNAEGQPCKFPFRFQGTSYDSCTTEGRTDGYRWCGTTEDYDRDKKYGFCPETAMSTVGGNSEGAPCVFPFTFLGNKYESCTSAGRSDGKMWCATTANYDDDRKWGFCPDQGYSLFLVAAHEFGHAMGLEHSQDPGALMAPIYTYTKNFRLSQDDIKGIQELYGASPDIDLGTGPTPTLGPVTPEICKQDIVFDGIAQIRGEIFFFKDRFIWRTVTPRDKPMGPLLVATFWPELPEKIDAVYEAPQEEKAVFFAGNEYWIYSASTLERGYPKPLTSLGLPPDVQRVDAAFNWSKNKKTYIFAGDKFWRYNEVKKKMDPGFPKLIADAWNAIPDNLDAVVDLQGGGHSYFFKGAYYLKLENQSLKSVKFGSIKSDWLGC
# Description: Matrix metalloproteinase 2 (MMP-2) was purchased from Sigma. DOPE-PEG was purchased from Avanti. Trypsin was purchased from Life Technologies. DISMIC was purchased from Advantec. Reverse phase HPLC was performed by using Model 1321H1 (GILSON), UV/VIS-155 (GILSON) as a detector, SOSMOSIL 5C18-AR-II (Nacalai Tesque) as a column, and 0.5% TFA-H2O and 0.5% TFA-acetonitrile filtered through Millicup-LH vacuum-driven bottletop filter unit (Millipore) as a mobile phase. The flow rate was 1.0 mL/minute.
# First, it was examined whether or not the peptide was decomposed by MMP-2. A 0.5 mM peptide solution (25 μL) dissolved in a solution containing 10 mM HEPES (pH 7.4), 140 mM NaCl and 2 mM CaCl2 was analyzed by reverse phase HPLC. Further, MMP2 was added to the 0.5 mM peptide solution (25 μL) at a final concentration of 53 nM, 230 nM and 450 nM, each mixture was incubated at 37° C. for 2 hours, and then the whole volume of the mixture was analyzed by HPLC to confirm whether or not the peptide was decomposed by MMP2.
# HEK293 cells = test: Gene expression (luciferase activity) after transfection with MENDs, HEK293 cells; assay type: cell-based, human
# Description: (§1) By using D′MEM added with inactivated FBS (FBS final concentration: 10%), the human fibrosarcoma-derived HT1080 cells were cultured on a sterilized culture dish in a CO2 incubator (37° C., 5% CO2). When the cells reached 70% confluence, the cells were removed from the dish by using 0.5 mM EDTA-PBS, the cell suspension was diluted to a density of 1 to 5×10^4 cells/mL using fresh D′MEM, and the cells were subcultured on a sterilized dish. In a similar manner, human kidney […] HEK293 cells were cultured. In the case of the HEK293 cells, the cells were removed from the dish by using 0.05% Trypsin/0.5 mM EDTA-PBS, and subcultured.
# (§2) One day before the transfection, the HT1080 cells and the HEK293 cells were each inoculated into 1 mL of a medium on a 24-well plate at a density of 4×10^4 cells/well. A sample, prepared to be corresponding to 0.4 μg of DNA, was diluted to 250 μL with FBS- and antibiotic-free D′MEM (hereinafter abbreviated as “D′MEM(−)”) in the case of a serum free medium, or diluted similarly with D′MEM in the case of serum containing medium. […] The luciferase activity (RLU) in 20 μL of the supernatant was measured, and proteins were measured according to the BCA method for the supernatant diluted 5 times with DDW to calculate RLU/mg protein.
# [2] = Particle diameter and zeta-potential of compaction body and MENDs (Example 4); assay type: physicochemical; conditions: Example 4, in HBG; PEG-lipid ratio (5% or 15%) not given
# Description: According to the formula (I) mentioned in Example 3, the charge ratio (+/−) was determined to be 1.5, and a compaction body of pDNA coding for luciferase and protamine was prepared in HEPES buffered glucose (10 mM HEPES, pH 7.4, 5% glucose, HBG).
# In the same manner as that of Example 3, a lipid membrane consisting of 30% DOTAP, 40% DOPE, and 30% Chol was prepared. To this membrane, PEG-DSPE or PEG-peptide-DOPE was added at a molar ratio of 5% or 15%, and the mixture was evaporated to obtain lipid membranes. Then, the compaction body was added to each of these lipid membranes, and the mixtures were sonicated to prepare MEND, PEG-modified MEND containing PEG-DSPE, and PEG-modified MEND containing PEG-peptide-DOPE.
# [3] = Particle diameter and aggregation of DOPE liposomes versus addition ratio of PEG-lipid; assay type: physicochemical; conditions: for aggregation on incubation: DOPE liposomes with PEG-peptide-DOPE, 37° C.
# Description: (§3) A 1 mM lipid solution dissolved in ethanol, of which 125 μL was taken as 100%, was put into test tubes at various molar ratios, and a 1 mM DOPE-PEG solution was also added as required. Chloroform was added in the same volume of ethanol to the mixture in each tube, and the mixture was stirred. Then, the solvent was evaporated in a desiccator to obtain a lipid membrane. After the preparation of the lipid membrane, a solution (250 μL) containing 20 mM HEPES (pH 7.4), 280 mM NaCl, and 4 mM CaCl2 was added, and after hydration for 30 minutes, the mixture was sonicated for 1 minute to prepare liposomes.
# (§4) Then, to the prepared liposomes (50 μL), PBS (10 μL), 230 nM or 5.5 nM MMP-2 in terms of final concentration, and 230 nM bovine serum albumin in terms of final concentration were added, the mixture was incubated at 37° C., and after 2, 8 and 24 hours, the particle diameter was measured. […] Even with the addition of 1% of DOPE-PEG, liposomes having a particle size less than 200 nm and showing stable dispersion was successfully prepared.
# Also in this experiment, liposomes having a particle size less than 200 nm and showing stable dispersion were similarly prepared with the addition of 1% of PEG-peptide-DOPE.
# [4] = Particle diameter and zeta-potential of MENDs (Example 3); assay type: physicochemical
# Description: In order to prepare a negatively charged compaction body, the charge ratio (+/−) was determined to be 1.5 according to the formula (1). To 30 μL of pDNA (0.5 mg/mL), 120 μL of 10 mM HEPES-HCl (pH 7.4) was added. To 5 μL of protamine (2 mg/mL), […] of 10 mM HEPES-HCl (pH 7.4) was added. Protamine was slowly added dropwise to the pDNA solution with stirring by a vortex mixer. Formation of the compaction body was confirmed by measurement of the particle diameter and zeta-potential.
# Lipid solutions of 1 mM in ethanol, each of which 125 μL was taken as 100%, were put into test tubes at molar ratios of 30% DOTAP, 40% DOPE, and 30% Chol. As for addition of PEG-lipids, 1 mM PEG-DSPE solution or PEG-peptide-DOPE solution in ethanol was added at a molar ratio of 5% or 15% based on the lipids except for the PEG-lipids, which were taken as 100%. Chloroform was added in the same volume of ethanol to the mixture in each tube, and the mixture was stirred. Then, the solvent was evaporated in a desiccator to obtain a lipid membrane. Then, the compaction body solution (250 μL) was added to the lipid membrane, and the mixture was left standing at room temperature for 15 to 30 minutes for hydration, and then sonicated for 1 to 2 minutes. The particle diameter and the zeta-potential were measured. Any significant difference was not observed between the values measured for MENDs containing PEG-peptide-DOPE and MENDs containing PEG-DSPE, and thus it was considered that equivalent MENDs were successfully prepared.
# HT1080 cells = test: Gene expression (luciferase activity) after transfection with MENDs, HT1080 cells; assay type: cell-based, human
# Description: as §1, §2
# MMP-2 [5] = biological target: T1, MMP-2; test: Evaluation of PEG cleavage by MMP-2 (aggregation / particle diameter of DOPE liposomes); assay type: biochemical; conditions: for aggregation of the liposomes: DOPE liposomes containing PEG-peptide-DOPE at 10%
# Description: It was evaluated whether or not the PEG-peptide-DOPE obtained in Example 1 was cleavable with MMP. For in vitro evaluation, a system was used with which the cleavage of PEG was detected on the basis of an increase in particle diameter. […] Cylinder-shaped lipids form a lamellar structure (bilayer structure), i.e., a liposome structure, whereas inverse cone-shape lipids form a […] (FIG. 1). It is known that when a PEG-lipid is added at a certain ratio to DOPE, the lipids form a lamellar structure and stably form liposomes. Therefore, if a matrix metalloproteinase is made to act on DOPE-containing liposomes prepared by using PEG-peptide-DOPE, thereby the peptide is decomposed and PEG is cleaved, DOPE molecules from which PEG is cleaved can no longer form liposomes, and take the hexagonal structure to initiate the aggregation. The above hypothesis was adopted as an evaluation method for PEG cleavage. Further, for in vitro evaluation of PEG cleavage, a method of measuring genetic expression activity was adopted. If the interaction of MEND and cell membranes is enhanced by cleavage of PEG, […].
# as §3, §4
# [6] = MEND with PEG-lipid at molar ratio 5%
# [7] = MEND with PEG-lipid at molar ratio 15%
Substance,decomposition of the peptide by MMP-2 (HPLC peak of degradation product) (MMP-2 [1]),increase of gene expression compared with PEG-DSPE (HEK293 cells; MEND modified with 5% of PEG) [times],gene expression activity compared with the PEG-DSPE modification group (HEK293 cells; MEND modified with 15% of PEG),particle diameter [2] [nm],ξ -potential [2] [mV],aggregation on incubation ([3]; PEG content up to 5%),aggregation on incubation ([3]; addition amount of 10%),"particle size ([3]; DOPE liposomes, addition of 1% of PEG-peptide-DOPE)","elevation of phase transition temperature compared with DOPE-PEG ([3]; DOPE liposomes, suggested by the results)","particle diameter [4, 6] [nm]","zeta-potential [4, 6]","particle diameter [4, 7] [nm]","zeta-potential [4, 7]",increase of gene expression compared with PEG-DSPE (HT1080 cells; MEND modified with 5% of PEG) [times],gene expression activity compared with the PEG-DSPE modification group (HT1080 cells; MEND modified with 15% of PEG),"aggregation of the liposomes (MMP-2 [5]; 5.5 nM MMP-2, 37° C.)","aggregation of the liposomes (MMP-2 [5]; 230 nM BSA, 37° C.)","aggregation of the liposomes (MMP-2 [5]; 230 nM MMP-2, 37° C.)","aggregation of the liposomes (MMP-2 [5]; in PBS, 37° C.)",cleavage by MMP-2 (MMP-2 [5]; lipid in the state of constituting liposomes)
GGGVPLSLYSGGGG [peptide],peak became larger in an enzyme concentration-dependent manner,,,,,,,,,,,,,,,,,,,
"PEG-peptide-DOPE: MeO-PEG succinate bound to Gly-Gly-Gly-Val-Pro-Leu-Ser-Leu-Tyr-Ser-Gly-Gly-Gly-Gly, bound to dioleoylphosphatidylethanolamine; tested as component of liposomes and MENDs ({MeO‑PEG succinate}-GGGVPLSLYSGGGG-{DOPE})",,5,did not give the increase of the gene expression activity,141,12.8,aggregation was observed,aggregation was not observed,less than 200 nm,did not elevate the phase transition temperature as much as DOPE-PEG,162.2,+18.79 mV,141.2,+2.80 mV,35,did not give the increase of the gene expression activity,Aggregation of the liposomes was not observed,Aggregation was not observed,aggregation was observed,Aggregation of the liposomes was not observed,cleaved by MMP-2

# Source: patent US20090022782A1, “Blood Retainable Device Exhibiting Selective Degradability in Tumor Tissue” (NATIONAL UNIVERSITY CORP. HOKKAIDO UNIVERSITY, priority 2005, published 2009)
